Experimental data reported in paper PMC2575792.

Biological target: T1, ICAM-1 fused to monomeric EGFP (mEGFP) or to mRFP1, P05362
T1 chain: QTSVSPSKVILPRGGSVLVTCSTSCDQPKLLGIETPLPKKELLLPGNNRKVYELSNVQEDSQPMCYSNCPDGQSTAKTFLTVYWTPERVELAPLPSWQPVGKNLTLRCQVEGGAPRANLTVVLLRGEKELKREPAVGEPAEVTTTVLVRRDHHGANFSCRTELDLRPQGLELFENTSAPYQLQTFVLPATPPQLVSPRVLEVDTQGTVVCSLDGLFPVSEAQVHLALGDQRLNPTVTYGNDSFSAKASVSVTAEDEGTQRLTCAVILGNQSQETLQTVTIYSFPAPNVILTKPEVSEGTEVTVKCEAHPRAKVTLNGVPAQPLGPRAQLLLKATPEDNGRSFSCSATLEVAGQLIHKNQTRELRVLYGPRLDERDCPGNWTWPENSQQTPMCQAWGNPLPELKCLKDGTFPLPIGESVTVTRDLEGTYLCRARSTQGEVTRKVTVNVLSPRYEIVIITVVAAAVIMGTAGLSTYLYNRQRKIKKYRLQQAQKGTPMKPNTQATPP
Assay: FRET or BRET
Conditions: remark: other sources report otherwise

- FRET efficiency: 14 to 34%
- percent of pixels with positive FRET: 12%
B1: ICAM-1 fused to monomeric EGFP (mEGFP) or to mRFP1, P05362 28-532 (receptor)
chain: T1 chain
